Test results reported in patent US20240002541A1 (Johns Hopkins, published 2024).

Tests used:
TRBV12 = molecular target: T1, TRBV12; experiment: not stated (column 'Affinity' of Table 1)
T1 chain: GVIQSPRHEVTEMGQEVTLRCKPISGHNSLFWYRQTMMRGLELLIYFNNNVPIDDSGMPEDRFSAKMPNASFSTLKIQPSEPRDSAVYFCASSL

[1] = molecular target: T2, TRBV5-5 on human T cells and HPB-ALL cells (human, UniProt A0A597 22-114); experiment: cell-based or functional assay
T2 sequence (TCR beta, looked up): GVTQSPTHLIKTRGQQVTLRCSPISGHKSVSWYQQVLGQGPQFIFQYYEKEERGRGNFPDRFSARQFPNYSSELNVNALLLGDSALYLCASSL

[2] = molecular target: T2, TRBV5-5 on human T cells and HPB-ALL …; experiment: cell-based or functional assay; remark: listed apart in the source
TRBV5-5 = molecular target: T3, TRBV5-5 (UniProt A0A597 22-114, limits assumed); experiment: not stated (column 'Affinity' of Table 1)
T3 construct: The antigen construct is not described; also called T cell receptor β chain variable 5-5
T3 sequence (TCR beta, looked up): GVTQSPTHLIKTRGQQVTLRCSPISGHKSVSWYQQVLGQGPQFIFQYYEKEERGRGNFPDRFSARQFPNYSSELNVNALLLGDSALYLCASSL

CD3 = molecular target: T4, CD3 (UniProt P07766 23-126); experiment: not stated (column 'Affinity' of Table 1)
T4 construct: The antigen construct is not described; also called cluster of differentiation 3; CD3ε subunit

TRBV12-3 on Jurkat cells [3] = molecular target: T5, TRBV12-3 on Jurkat cells (human, UniProt P01733 22-115); experiment: cell-based or functional assay
T5 sequence (TCR beta, looked up): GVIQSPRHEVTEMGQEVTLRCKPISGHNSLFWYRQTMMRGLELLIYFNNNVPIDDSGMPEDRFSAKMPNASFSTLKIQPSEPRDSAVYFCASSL

TRBV12-3 on Jurkat cells [4] = molecular target: T5, TRBV12-3 on Jurkat cells; experiment: cell-based or functional assay; remark: listed apart in the source
TRBC1 = molecular target: T6, TRBC1 (UniProt P01850 1-130, limits assumed); experiment: not stated (column 'Affinity' of Table 1)
T6 construct: The antigen construct is not described; also called T cell receptor β chain constant 1; Cβ1 TCR

CD19 = molecular target: T7, CD19 (UniProt P15391 20-291, limits assumed); experiment: not stated (column 'Affinity' of Table 1)
T7 construct: The antigen construct is not described
T7 sequence (looked up): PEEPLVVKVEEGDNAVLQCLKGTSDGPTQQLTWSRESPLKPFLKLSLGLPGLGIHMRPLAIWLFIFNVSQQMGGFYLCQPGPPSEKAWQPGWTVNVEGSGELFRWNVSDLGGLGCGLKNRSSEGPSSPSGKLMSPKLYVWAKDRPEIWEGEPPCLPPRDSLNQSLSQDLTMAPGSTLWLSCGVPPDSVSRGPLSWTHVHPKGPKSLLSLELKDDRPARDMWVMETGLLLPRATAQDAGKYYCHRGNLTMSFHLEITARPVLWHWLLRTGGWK

T4 sequence (P07766 23-126): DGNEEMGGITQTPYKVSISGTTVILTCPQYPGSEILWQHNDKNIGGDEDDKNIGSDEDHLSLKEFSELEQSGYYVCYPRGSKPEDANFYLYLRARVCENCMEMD
T6 sequence (P01850 1-130 limits assumed): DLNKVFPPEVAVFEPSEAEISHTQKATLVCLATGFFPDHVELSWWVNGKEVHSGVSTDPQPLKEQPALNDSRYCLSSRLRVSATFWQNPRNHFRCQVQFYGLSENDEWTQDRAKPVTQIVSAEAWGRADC

B1: α-TRBV12 scFv (clone 16G8) (scFv, V domains shown)
VH: DVQLVESGGGLVQPGGSRKLSCAASGFTFSNFGMHWVRQAPDKGLEWVAYISSGSSTIYYADTLKGRFTISRDNPKNTLFLQMTSLRSEDTAMYYCARRGEGAMDYWGQGTSVTVSS
VL: ENVLTQSPAIMSASLGEKVTMSCRASSSVNYIYWYQQKSDASPKLWIYYTSNLAPGVPTRFSGSGSGNSYSLTISSMEGEDAATYYCQQFTSSPFTFGQGTKLEIK
notes: also called anti-TRBV12 scFv
Kd (TRBV12): 2.6 nM

B2: anti-TRBV5-5 BsAb (α-V5) (bispecific antibody)
chain: DIQMTQTTSSLSASLGDRVTITCSASQGISNYLNWYQQKPDGTVKLLIYYTSSLHSGVPSRFSGSGSGTDYSLTISNLEPEDIATYYCQQYSKLPRTFGGGTKVEIKGGGGSEVQLVESGGGLVQPGGSLRLSCAASGYSFTGYTMNWVRQAPGKGLEWVALINPYKGVSTYNQKFKDRFTISVDKSKNTAYLQMNSLRAEDTAVYYCARSGYYGDSDWYFDVWGQGTLVTVSSGGGGSGGGGSGGGGSDIQMTQSPSSLSASVGDRVTITCRASQDIRNYLNWYQQKPGKAPKLLIYYTSRLESGVPSRFSGSGSGTDYTLTISSLQPEDFATYYCQQGNTLPWTFGQGTKVEIKGGGGSQVQLKESGPGLVAPSQSLSITCTVSGFSLTAYGVNWVRQPPGKGLEWLGMIWGDGNTDYNSALKSRLSISKDNSKSQVFLKMNSLQTDDTARYYCARDRVTATLYAMDYWGQGTSVTVSSHHHHHH
EC50 of GM-CSF release (Luminex), HPB-ALL WT + T cells, 17 hours [1]: 0.0423 nM
EC50 of IFNγ release (Luminex), HPB-ALL WT + T cells, 17 hours [1]: 0.0311 nM
EC50 of IL2 release (Luminex), HPB-ALL WT + T cells, 17 hours [1]: 0.0945 nM
EC50 of IL5 release (Luminex), HPB-ALL WT + T cells, 17 hours [1]: 0.0544 nM
EC50 of TNFα release (Luminex), HPB-ALL WT + T cells, 17 hours [1]: 0.166 nM
EC50 of the loss of HPB-ALL viability (luminescence), 5x10^4 HPB-ALL cells with 5x10^4 normal human T cells, 17 hours [2]: 0.00209 nM

B3: α-TRBV5-5 scFv (clone TM23) (scFv, V domains shown)
VH: QVQLKESGPGLVAPSQSLSITCTVSGFSLTAYGVNWVRQPPGKGLEWLGMIWGDGNTDYNSALKSRLSISKDNSKSQVFLKMNSLQTDDTARYYCARDRVTATLYAMDYWGQGTSVTVSS
VL: DIQMTQTTSSLSASLGDRVTITCSASQGISNYLNWYQQKPDGTVKLLIYYTSSLHSGVPSRFSGSGSGTDYSLTISNLEPEDIATYYCQQYSKLPRTFGGGTKVEIK
notes: also called anti-TRBV5-5 scFv
Kd (TRBV5-5): 25.2 nM

B4: α-CD3 scFv (clone UCHT1.v9) (scFv, V domains shown)
VH: EVQLVESGGGLVQPGGSLRLSCAASGYSFTGYTMNWVRQAPGKGLEWVALINPYKGVSTYNQKFKDRFTISVDKSKNTAYLQMNSLRAEDTAVYYCARSGYYGDSDWYFDVWGQGTLVTVSS
VL: DIQMTQSPSSLSASVGDRVTITCRASQDIRNYLNWYQQKPGKAPKLLIYYTSRLESGVPSRFSGSGSGTDYTLTISSLQPEDFATYYCQQGNTLPWTFGQGTKVEIK
notes: also called anti-CD3 scFv
Kd (CD3): 4.7 nM

B5: anti-TRBV12 BsAb (α-V12) (bispecific antibody)
chain: ENVLTQSPAIMSASLGEKVTMSCRASSSVNYIYWYQQKSDASPKLWIYYTSNLAPGVPTRFSGSGSGNSYSLTISSMEGEDAATYYCQQFTSSPFTFGQGTKLEIKGGGGSEVQLVESGGGLVQPGGSLRLSCAASGYSFTGYTMNWVRQAPGKGLEWVALINPYKGVSTYNQKFKDRFTISVDKSKNTAYLQMNSLRAEDTAVYYCARSGYYGDSDWYFDVWGQGTLVTVSSGGGGSGGGGSGGGGSDIQMTQSPSSLSASVGDRVTITCRASQDIRNYLNWYQQKPGKAPKLLIYYTSRLESGVPSRFSGSGSGTDYTLTISSLQPEDFATYYCQQGNTLPWTFGQGTKVEIKGGGGSDVQLVESGGGLVQPGGSRKLSCAASGFTFSNFGMHWVRQAPDKGLEWVAYISSGSSTIYYADTLKGRFTISRDNPKNTLFLQMTSLRSEDTAMYYCARRGEGAMDYWGQGTSVTVSSHHHHHH
EC50 of GM-CSF release (Luminex), Jurkat WT + T cells, 17 hours (TRBV12-3 on Jurkat cells [3]): 0.0121 nM
EC50 of IFNγ release (Luminex), Jurkat WT + T cells, 17 hours (TRBV12-3 on Jurkat cells [3]): 0.0235 nM
EC50 of IL2 release (Luminex), Jurkat WT + T cells, 17 hours (TRBV12-3 on Jurkat cells [3]): 0.0205 nM
EC50 of IL5 release (Luminex), Jurkat WT + T cells, 17 hours (TRBV12-3 on Jurkat cells [3]): 0.0124 nM
EC50 of TNFα release (Luminex), Jurkat WT + T cells, 17 hours (TRBV12-3 on Jurkat cells [3]): 0.0138 nM
EC50 of the loss of Jurkat viability (luminescence), 5x10^4 Jurkat cells with 5x10^4 normal human T cells, 17 hours (TRBV12-3 on Jurkat cells [4]): 0.00078 nM

B6: α-TRBC1 scFv (clone Jovi-1) (scFv, V domains shown)
VH: EVRLQQSGPDLIKPGASVKMSCKASGYTFTGYVMHWVKQRPGQGLEWIGFINPYNDDIQSNERFRGKATLTSDKSSTTAYMELSSLTSEDSAVYYCARGAGYNFDGAYRFFDFWGQGTTLTVSS
VL: DVVMTQSPLSLPVSLGDQASISCRSSQRLVHSNGNTYLHWYLQKPGQSPKLLIYRVSNRFPGVPDRFSGSGSGTDFTLKISRVEAEDLGIYFCSQSTHVPYTFGGGTKLEIKR
notes: also called anti-TRBC1 scFv
Kd (TRBC1): 0.4 nM

B7: α-CD19 scFv (clone HD37) (scFv, V domains shown)
VH: QVQLQQSGAELVRPGSSVKISCKASGYAFSSYWMNWVKQRPGQGLEWIGQIWPGDGDTNYNGKFKGKATLTADESSSTAYMQLSSLASEDSAVYFCARRETTTVGRYYYAMDYWGQGTTVTVSS
VL: DIQLTQSPASLAVSLGQRATISCKASQSVDYDGDSYLNWYQQIPGQPPKLLIYDASNLVSGIPPRFSGSGSGTDFTLNIHPVEKVDAATYHCQQSTEDPWTFGGGTKLEIK
notes: also called anti-CD19 scFv
Kd (CD19): 0.3 nM
